Assay: label from the status in PepcDB records

MGIKEKEIELETLKREIAQAEASLEQDFIKYMVDKTNEKVEDLFFSNKPEFYRFVFTEQNNYLREKLTDKVGRAMDLSDEIQRDKTENESLENGTKFKKRFVFELQNDLIFLRTKRNTYSAKTEHENFQERLLAAKDTFRLIKANDFKTKIYPYQITLRLKTKHIIVFRWLKKEIIKRFVKKDLFTETLSIKITDKKGQKYALIANYNHASDIIELMLDDKTYTTTLYYQKPLFDLIKNSNFNLTIKDNTLEINQAKKRLFV
protein production: failed

MKAILRASRIGRVILRYRLDALLEGTPAERWLRLAKPFVPRASAEIAAQSRGARLRLALQELGPIFVKFGQILSTRRDLIPADVAEELTLLQDRVKPFDGQAARLIVEAALGLPVSVAFASFDTVPLASASIAQVHAATLPPDANGVRREVVVKVLRPEIERQIDADIALLHSLATLVERTHPRADKIRPREVVAEIEGTLAAELDLQREGANASVLRRFWEGSDDLYVPEVIWSHTAERALTLERVYGIPSDDIAKLDAAGIDRKALAAKGVRVFYTQVFRDNFFHADAHAGNIWVDSDPERRLNPRFIALDFGIMGQLSQEDQYYLAENFMAIFHKDYRRMAELHVEAGWMPSNVRIDELEAAARSVCEPYFNRPLSEISLAQVLIKLFRVAQRYELTLQPQLILLQKTLLNIEGVGRQLDPRLDIWAVARPVLERILRERYSPRRVLRELSKRLPEIMTHAPDMPRLVYSWLTQQVEGRHQIAIRSPELLALDLSLRKLQTRVVTAITGSGLLVVAAVLYGLHPDGWYLGTVPVWSWISGGAGSAALLVAWLRR
protein production: failed

MKKFLSFISFATIVSLVLSVFAKPYTEILRFKTTQQIAPRTYYEKYELLTDEGFVDINCIKLDLIDGGFDFDVLKSKVANTGDFVYNMVSSQIDKNPIAAINANFFYTNTKTDYNKIWPIGISVSGGKILSSPNNKQNTFPAFVYTTSNEILFDYINGLLYKLVNLDSGYEFKIAHVNKFTGDLTYPILFTGDYVQKTIGNKYKGIVELIIKDGIIKDIREEKQTVALDKNEYLLVATGNYAKNLKANFKVGDKVSLKIDLSIPLEKIKAAASGNTFLLKDGKIPSFTHEIAGRHPRSAIGIDKTGRYLYLVAVDGRNGKSIGLSQGELASFLQSIDVWTAINLDGGYSTQLIAKDNDGKFKAFYNIGETRKVFDSIAAFYKYRDDKIATFYIDCPDRVFAGEEYPIKVYAKDRFYNTITYDAVYLKVYQDAYEIDIKDGTFIPYKDGVVTISCVYEDVYQKAFAQKKISVYKPEILTTNKKQLYLLPGESARLRFYIKDKLGHFKEIDPRKVQAEKNPAFEFKDGSFIAKSNFRGFVTFSYKDLKCSIPVGIGETLQLLRSFDYLALSWPKGVSMFLSSKNKTQGKYSNKVYFSVSSTKGKSFKLNFKTPVDLTNINKISFDLCAKNVKVYLGFKMPNGTQKEVEIPQSKSDNFKSYSLNVESYKTLDYILLIPQKTQGYIWIDNLKGNVVNLPPVEAINQYVAKFDSKLAKSSVILLTKSFESLPSDTKKKVESNLGSYLKCYNLEKGNPPYEKNEKFNIVFLRTKSGSILDFSFYQWIRIKNLSAEKKPLIVVLDIPFESLKQNEKDILIRLLKSRKAPSMIICTTSDYTRVERYDTLYIGYASSNDLLAKSSTKSVNLACDVEKGYIYLARGY
protein production: failed

MECDRISTLPDHLVAKIVSYLGIKDSIKTSVLSKRWEFVWLKVVGLDLKNCDFPPNGIASQMVVNKYMEFNSGLHMQYFKVNFGGNTVCTNRFLEWIATAVDRGVQHLDAENKNPVIIKEFMPKKIYKSKTLVSLKLAIKIFLKARHFISVFIVLQGQSIVQFSSRCGTFS
protein production: not failed

MRLVADSACDIKELRGMVFKAVPLTISTDNEEFCDDGQLDIHRMLDILEKHKGRSYTACPGIDAWLEAFGDDDEIFVVTITAGMSGTYNSAMAARAVYLEEHPQAKVRVIDSKSTGPQMRIILEQLQQMIEEGKKFEEIDGAIDAYMQKTRLFCSLKSLHNLAQNGRVSKVVASAAEVLGISVIGTASSHGTLEAIGKCRGDKKLLVKLQALLDDAGYEGGKLRICHVENEALADKIADMIKQAYGTTDVCVYKAGGLCSYYAERGGIILSCETK
protein production: not failed

MFELFQYDFMRNALLAATAISIFSPLLGVFLVLRRQSLMSDTLSHVSLAGVAFGVLLSWNPTITTLITVVIAAVFLEYLRTIYHNYMEIATAILMSAGLAIALLILNSSKGATSVSLEQYLFGSIITISLSQVIMLFVLAAVVLLGFILFLRPLYVMTFDEDTAFVDGLPVRWISIAFNIVTGVAIALMIPAAGALLVSAIMVLPASIAMRLGKSFKAVLFISAIVSFIGLNAGLIASYYMDAPASAAITLIFIVLFLVTSSLKRLIRA
protein production: failed

MWWWSSSTKGRSNLERFLLGITPKPPSFSLPQEQGKEEIEYFRLGDLWDCYDEMSAYGFGTQVDLNNGETVMQYYVPYLSAIQIHTNKPALLSRNQNEVAESESSEGWSDSESEKLLSRSMSNDSSKTWDAVSEDSVFDPDGSPLLKDRLGNLDFKYIERDPPHKRIPLTDKINVLVEKYPGLMTLRSVDMSPASWMAVAWYPIYHIPTCRNEKDLTTGFLTYHTLSSSFQDNVVEGDQSNNNEETEFCEDSVINKRMPLPPFGVTTYKMQGDLWGKTGFDQDRLLYLQSAADSWLKQLNVDHHDYNFFLNSSF
protein production: failed

MPDIDLHALSRTVLWATFALTFLFGAILQRTHFCTMGAVSDAVNIGDWSRLRMWALAIGVAMIGTGILGWAGWIDPAKTIYAAGRLQWLSALVGGLMFGFGMVLGSGCGSKTLVRIGGGNLKSVVVFVFLGLSAYMTLKGVFGVVRVATVDAVAIALPTTQDLPSVLGHALSADVRMLRLALALAIGGALAVWALAGRDFRTPDNLLGGIGVGLVIVAMWYVSGHLGYVAEDPDTLQEAFVATNSGRMEALSFVAPVSYTLEWLMFFSDTSKVLTVGIVSVLGVIAGSAAVALASGTFRWEGFANAEDTGNHIVGGILMGAGGVTALGCTIGQGLSGVSTLAIGSFVALAGILAGAVLAFRYQMWRLERGG
protein production: failed

MSHVSLQEFLKTEPDGTLEVVAEQYNTTLLEVVRNLPSSTVVPGDKFDTVWDTVCEWGNVTTLVHTADVILEFSGELPSGFHRHGYFNLRGKHGMSGHIKAENCTHIALIERKFMGMDTASILFFNKEGSAMLKIFLGRDDHRQLLSEQVSAFHTLAASLKEHA
protein production: not failed

MKRKISSIIVVGIMLFQSLTMYPFITEAKENEQKEEINKPSKITKGLTNSLKYTKTILETGDTYDSVFPDSALAKVVAKEATGSENTTQLVTQADLNKIKSLNGYNKGISVLTGIDLLVNVTSISLNNNQVTDISPIDQLPNLVSLSVKNNQISSLILNAQNQLPKLTTIDIENNPDLNTIDIQDQPQLVDVKTSGYTGLRKLTTVIAKNNPELVNLGQYTIRNVYFSQVASLTKVELVNLPKVRKVNLERNSINELKVTDLAIEDLPLEENELTDTVFDNIQNLPNLKTLDLSKNQLEEVVLDKTDVENLPNLMTLDIQQNLAIKLINVQDQPQLVDVKTSDYKELSALTTVIAKNNPELVNLGQYTIRNVYFSQVASLTKVELVNLPKVRKVNLERNSINELKVTDLAIEDLPLEENELTDTVFDNIQNLPNLKTLDLSKNQLEEVVLDKTDVENLPNLMTLDIQQNLAIKLINVQDQPQLVDVKTSDYKELSALTTVIAKNNPELVNLGYPIMQNVYFSQVASLTKVELANLPKVRAVRLERNSINQIELNNLVSVKDVNLNTNKITNDSIEKFRGMPILATLNLNKNQITNINMLDGFPQMTTLNIDLNSISVLPSNLKTKMPKLSRISALNQTVTLGKAIVVDDSDLIINNEISNFEKLTEPSPISNFGTYANEKITWSSERIKNLTEVSFQFSELINVTGIDGTFSGKVTQPFKRSTTPVINADSEIHYPQGTEKTEAEFLKDVQAQTTDDLAIKSDFETMVNLKKVGKYTVTLNVENLDGIKATPKEVIVYIDAVQGANITVKYEDESGNKLAENSILTGNVGEEYSSSAKEILGYTLTEMPSNAQGEFSLEEQTVTYIYSKNPVPAKDITVQYTDEDGMELAPTETLSGNVDENYVTTAKTFTGYELIETPSNAEGKFSENAQTVTYVYRAIKAEPILAKEVTVNYQDELGAKISETEVLTGEIGETYTTVAKTIDGYTLIKSPTNANGIFNENPQTVTYVYQLQNSPIAANITVKHLDENNNELAPSEVLSGNVDEAYTTKPKEIKDYSLVKVPTNASGKFTTEAQTVIYHYKKNSIPTSSYITVKYVDETGKELAISKVLNGNINDSYATTAKEIKGYTLVQKPANATGKFTDQNQTIKYVYRANKAEVNPNPNSDVLGSNSNGDIQPTNDIKPTNDVQPTNEAPQTLPKTGSQPANLIFGLGILLVLLSTQWLHRNKRKKAKSHNC
protein production: failed

MRTRIERTEEMVEQLPLVSVLIPTYNRPSYFEKALCSVLEQTYPNIEIIVGDDSTNDETEKLLQKYLCDHSNIIYIKNRSTLGQFENALMLFNEANGEYINFLMDDDVFHVNKIEKMMKYFFNDLDNEIKLVTSHRQVIDDKGKELRHIYSTVRLFEEDTIIEGTELGNKVIVDQKNYIGEPTTVLFRKNDLQEPYGIFDKRRYLCNVDIASWLSLLSKGKAVYIAETLSYFRLHPDQQLNESNKMMDGLEDFSHSIIAGEQYGFLSTEKELDKAITNFLDYARRIVPSSILYTLDYYQKIRAKKINIEKKKQHINNNSSLPKVSILIPAYNRPYYLELALNSALNQTYENIEIIISDDSTNNEVNAMIQPYLREYECITYVKNETPLVAENFNKCVELANGDYMNFLLDDDLFHHEKIERMMKYFLTLENISFVTSYRELIDENGEILPPSTLNMKIAKETTLFEGKELGNYMLKNLKNVVGEPTTVLFNRDLFDGKFGYFKGKAYSAINDIATWLDMMRKGKVVYIHEPLSYFRQHSGQNQKQMHFILMTIEEWIELIIDAYNSGFLSSESEYKESLSYCLENAGFIVKDAVRNGELDQIYNEKIKKGLNKLVAHMFEKESCYCQYCNQQFEKFSPWPAHYDFPKYKFEMWNKDTGICPVCNSMDRERLYRAYIETETDLLNRNYTMLHIAPEAKLRDWFNEYKNITYVCGDLEPKDPLMKEIDVTRITYDSNTFDVILCSHVLEHVPDDDKAMRELYRVLKPNGWGIIQVPIVMNVDFIIENELIVTPQLRKLAFGQEDHVRIYNQSGFIQRLMNAGFKVELYNIAEKQGMKGARKFGLSETDMLYIVRK
protein production: failed

MTKQDIRVALTIVALVLGLGWAIGYGIGLMTRPASVVPENPPHDALKSPARKAPRSGAVSGDTRYPDYEELYVNDYADLLDPAAEDRLRDKLIALYGHNGVEMTVLTIDTMGTYGHGGAIEPFATGLFNNWGIGDAERNDGVLVLIVRFDRKMRIEIGAGYERAWDARMQRVIDAGFLPYFRRDEYQEGIEAGVDETIRELTGAYPGAWDMGTAQRGWSWLARAVDRIGEWVLSLLLVPLGGAALWVRRYLRNRTRPCAQCRTPMLRAGEEADDEHLDGGQRLEEYLKSVDYDVWHCPDCGHIDIHRYKSWFSGYGACPQCNYRTLSTTSTVLSAATKTREGRKRVEYDCAHCGHHDSEIRTIPKISDSNSGGSGRSSFGGGSSSGGGASGSW
protein production: failed

VARTAEEQANHDLVIEMYNKVLIAMDSSAVDRYIAPGYVQHSSLAEPSVEALKGFLDRVRAESPDARQTIHRSFVDGDHVITHTHVERWPGDAGLAVVDIFRVEGGMIVEHWDVIQDVPANPVNPNSMF
protein production: not failed

MSLEKLDTNTFEQLIYDEGKACLVMFSRKNCHVCQKVTPVLEELRLNYEESFGFYYVDVEEEKTLFQRFSLKGVPQILYFKDGEYKGKMAGDVEDDEVEQMIADVLED
protein production: not failed

MSDRGASAPSLPDDWPAHPDPILALNRMGSFDWDLDAGLFHMDAQAHEVFDLRPEEYDGRPESLALRVPTAESRRMDTIVARAMKDGSENYGTYFRLRRRDGTLRWTHTQGYIRRDETGRPRRIIGIVRDATQ
protein production: failed

From a protein production outcome set (Wang et al. 2014)
